Experimental data: PMC4936022, “Epigenetic silencing of serine protease HTRA1 drives polyploidy”

Key:
[1] = target: T1, MBD2b (MBD2 lacking the N-terminal 149 residues) (UniProt Q9UBB5 150-411); test: EMSA; 70 pmol each, equimolar; 5 mM Mg2+; EMSA: 50 mM Tris, 5 mM MgCl2, 10 mM DTT, pH 7.5, 5 min, RT, 10 ul, 12% gel, ethidium bromide; protease protection: 50 mM Tris, 5 mM MgCl2, pH 7.5, 10 min RT with DNA, then trypsin 20 min 37 C; details: protein: recombinant; tags: 6His; label: none (ethidium bromide stain); blunt
T1 sequence (Q9UBB5 150-411): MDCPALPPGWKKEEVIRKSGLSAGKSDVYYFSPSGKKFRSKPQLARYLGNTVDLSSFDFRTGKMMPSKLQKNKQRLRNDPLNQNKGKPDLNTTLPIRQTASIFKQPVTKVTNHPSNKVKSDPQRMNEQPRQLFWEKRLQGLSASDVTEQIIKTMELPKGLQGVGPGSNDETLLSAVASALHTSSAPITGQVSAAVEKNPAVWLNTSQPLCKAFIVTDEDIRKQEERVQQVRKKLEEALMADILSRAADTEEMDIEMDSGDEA

[2] = target: T1, MBD2b (MBD2 lacking the N-terminal 149 …); test: EMSA; 70 pmol each, equimolar; 5 mM Mg2+; 1:1 stoichiometry; EMSA: 50 mM Tris, 5 mM MgCl2, 10 mM DTT, pH 7.5, 5 min, RT, 10 ul, 12% gel, ethidium bromide; protease protection: 50 mM Tris, 5 mM MgCl2, pH 7.5, 10 min RT with DNA, then trypsin 20 min 37 C; details: protein: recombinant; tags: 6His; label: none (ethidium bromide stain); blunt

| Binder | binding result [1] | binding result [2] |
| --- | --- | --- |
| HTRA1 promoter 12-mer, unmethylated (dsDNA) DNA 1: CTCAGCGAGAGA DNA 2: TCTCTCGCTGAG | no binding |  |
| HTRA1 promoter 12-mer, methylated (dsDNA, 5-methyl-dC at position 6 of the reverse strand (TCTCT-5mC-GCTGAG); forward-strand methylation not visible in the material (line truncated), probably 5mC at position 6) DNA 1: CTCAGCGAGAGA DNA 2: TCTCTCGCTGAG |  | binds |
